# Data as given in patent US11919930B2, “Odorant receptor co-receptor” (Sumitomo Chemical Company, Limited, priority 2016, dated 2024).
# B1: Dm(NT-TM4)AmORCO: chimeric co-receptor: NT to TM4 from Drosophila co-receptor, IC2 to C-terminal domain from Apis co-receptor; SEQ ID NO:100 (protein)
# chain: MTTSMQPSKYTGLVADLMPNIRAMKYSGLFMHNFTGGSAFMKKVYSSVHLVFLLMQFTFILVNMALNAEEVNELSGNTITTLFFTHCITKFIYLAVNQKNFYRTLNIWNQVNTHPLFAESDARYHSIALAKMRKLFFLVMLTTVASATAWTTITFFGDSVKMVVDHETNSSIPVEIPRLPIKSFYPWNASHGMFYMISFAFQIYYVLFSMIHSNLCDVMFCSWLIFACEQLQHLKNIMKPLMEFSATLDTVVPNSGELFKAGSAEQPKEQEPLPPVTPPQGENMLDMDLRGIYSNRTDFTTTFRPTAGMTFNGGVGPNGLTKKQEMLVRSAIKYWVERHKHIVRLVTAIGDAYGVALLLHMLTTTITLTLLAYQATKIHAVDTYAASVVGYLLYSLGQVFMLCIFGNRLIEESSSVMEAAYSCHWYDGSEEAKTFVQIVCQQCQKAMSISGAKFFTVSLDLFASVLGAMVTYFMVLVQLK
# Columns and labels:
# odorant receptor AaOR8 = assay: Aequorin luminescence measurement in HEK293FT cells co-expressing AaOR8 and a co-receptor, 1-octen-3-ol added; format: cell-based; details: 1-octen-3-ol 10^-4 to 10^-10 M, compared to cells that expressed original AmORCO or DmORCO
# Experimental: HEK293FT cells (purchased from invitrogen, Inc.) were inoculated into 10-cm Petri dishes at a concentration of 3×10^6 cells/Petri dish, and the cells were cultured in DMEM medium containing 10% FBS (manufactured by Nacalai Tesque, Inc.) for about 24 hours under the conditions of 37° C. and 5% CO2. 3 μg of any one of the co-receptor expression plasmids produced, 1.5 μg of any one of the odorant receptor expression plasmids produced, and 8 μg of Aequorin expression plasmid were mixed with 12.5 μL of Plus reagent and 31.25 μL of LIPOFECTAMINE LTX (manufactured by Invitrogen, Inc.), and the mixture was maintained for 30 minutes. Subsequently this liquid mixture was transfected into the above-mentioned cells. After 4 hours from the initiation of transfection, the cells were inoculated onto a 96-well plate at a concentration of 9×10^4 cells/well, and the cells were cultured in DMEM medium containing 10% FBS (manufactured by Nacalai Tesque, Inc.) for about 24 hours under the conditions of 37° C. and 5% CO2. Thereby, transformed cells having a co-receptor expression plasmid, an odorant receptor expression plasmid, and an aequorin expression plasmid transiently incorporated therein were obtained.
# (§1) Aequorin is activated when hound to a calcium ion, and oxidizes a substrate such as coelenterazine, thus emitting light. […] Therefore, whether an odorant receptor complex functions an ion channel as a result of addition of a substance to be detected, can be measured from the change in the amount of luminescence.
# A culture fluid of the transformed cells was removed, and the medium was exchanged with Hanks-HEPES (20 mM, pH 7.4) including Assay buffer (0.5 μM coelenterazine h (manufactured by Promega Corporation) and 0.3% BSA. culture system was left to stand for another 4 hours at room temperature. Subsequently, a substance to be detected, which corresponded to an odorant receptor, was added to the cell culture using FLEXSTATION 3 (manufactured by Molecular Devices, LLC), and at the same time, the amount of luminescence of the cells was measured. As a control substance, the amount of luminescence in the cells to which dimethyl sulfoxide had been added was designated as 1, and the amount or luminescence of cells to which the substance to be detected was added was calculated as a relative value.
# (§2) Cells into which: • an expression plasmid of odorant receptor AaOR8; • an expression plasmid of any one of co-receptor AaORCO or DmORCO, or various chimeric co-receptors Dm-AaORCO having different positions of recombination [Dm(NT-EC1)AaORCO, Dm(NT-TM3)AaOROC, Dm(NT-TM4)AaORCO, Dm(NT-TM5)AaORCO, or Dm(NT-TM6)AaORCO]; and • an aequorin expression plasmid had been incorporated were used, and the amount of luminescence was measured as explained above. 1-Octen-3-ol was used as a substance to be detected, and 1-octen-3-ol was added to the culture fluid at a concentration of 10^−4 M, 10^−5 M, 10^−6 M, 10^−7 M, 10^−8 M, 10^−9 M, or 10^−10 M. The results are presented in FIG. 1.
# as §2, with “AmORCO” for “AaORCO”, “Dm-AmORCO” for “Dm-AaORCO”, “[Dm(NT-TM3)AmOROC, Dm(NT-TM4)AmORCO, Dm(NT-TM5)AmORCO,” for “[Dm(NT-EC1)AaORCO, Dm(NT-TM3)AaOROC, Dm(NT-TM4)AaORCO, Dm(NT-TM5)AaORCO,”, “Dm(NT-TM6)AmORCO];” for “Dm(NT-TM6)AaORCO];”, “2. […]” for “1.”
# odorant receptor BmOR56 = assay: Aequorin luminescence measurement in HEK293FT cells co-expressing BmOR56 and a co-receptor, cis-jasmone added; format: cell-based, Bombyx mori; details: cis-jasmone 10^-5 to 10^-11 M, compared to cells that expressed BmORCO and BmOR56
# Experimental: (§3) HEK293FT cells (purchased from invitrogen, Inc.) were inoculated into 10-cm Petri dishes at a concentration of 3×10^6 cells/Petri dish, and the cells were cultured in DMEM medium containing 10% FBS (manufactured by Nacalai Tesque, Inc.) for about 24 hours under the conditions of 37° C. and 5% CO2. 3 μg of any one of the co-receptor expression plasmids produced, 1.5 μg of any one of the odorant receptor expression plasmids produced, and 8 μg of Aequorin expression plasmid were mixed with 12.5 μL of Plus reagent and 31.25 μL of LIPOFECTAMINE LTX (manufactured by Invitrogen, Inc.), and the mixture was maintained for 30 minutes. Subsequently this liquid mixture was transfected into the above-mentioned cells. […]
# as §1, with “luminescence. […]” for “luminescence.”
# (§4) Cells into which: • an expression plasmid of odorant receptor BmOR56; • an expression plasmid of any one of co-receptor BmORCO or chimeric co-receptor Dm(NT-TM4)AmORCO; and • an aequorin expression plasmid had been incorporated were used, and the amount of luminescence was measured as explained above. […]
# odorant receptor DmOR47a = assay: Aequorin luminescence measurement in HEK293FT cells co-expressing DmOR47a and a co-receptor, pentyl acetate added; format: cell-based, Drosophila melanogaster; details: pentyl acetate 10^-4 to 10^-7 M, compared to cells that expressed original DmORCO or AmORCO
# Experimental: as §3
# as §1, with “luminescence. […]” for “luminescence.”
# as §4, with “DmOR47a;” for “BmOR56;”, “DmORCO or AmORCO,” for “BmORCO”
# odorant receptor BmOR56, sequence (as listed by the source, one chain of several): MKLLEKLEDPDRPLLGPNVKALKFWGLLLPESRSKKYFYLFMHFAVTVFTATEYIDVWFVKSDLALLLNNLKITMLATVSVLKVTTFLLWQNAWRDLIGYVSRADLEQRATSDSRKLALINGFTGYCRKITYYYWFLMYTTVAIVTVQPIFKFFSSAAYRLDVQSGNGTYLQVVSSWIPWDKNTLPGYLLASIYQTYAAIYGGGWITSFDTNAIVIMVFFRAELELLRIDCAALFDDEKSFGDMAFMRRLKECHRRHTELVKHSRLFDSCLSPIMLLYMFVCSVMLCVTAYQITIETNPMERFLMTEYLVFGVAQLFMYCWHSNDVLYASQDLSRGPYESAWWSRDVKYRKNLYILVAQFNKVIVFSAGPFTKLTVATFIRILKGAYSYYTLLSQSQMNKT
# odorant receptor DmOR47a, sequence (as listed by the source, one chain of several): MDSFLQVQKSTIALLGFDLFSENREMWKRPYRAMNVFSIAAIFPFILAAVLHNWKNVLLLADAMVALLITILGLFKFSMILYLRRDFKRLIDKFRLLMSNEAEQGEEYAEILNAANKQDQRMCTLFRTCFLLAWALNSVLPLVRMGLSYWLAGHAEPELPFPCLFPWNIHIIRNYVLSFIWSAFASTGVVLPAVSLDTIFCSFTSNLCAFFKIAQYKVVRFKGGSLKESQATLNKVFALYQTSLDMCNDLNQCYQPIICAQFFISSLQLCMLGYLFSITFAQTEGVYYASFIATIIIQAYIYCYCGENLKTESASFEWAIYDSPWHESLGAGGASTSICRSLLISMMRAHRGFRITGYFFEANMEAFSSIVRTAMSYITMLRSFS
# odorant receptor AaOR8, sequence (as listed by the source): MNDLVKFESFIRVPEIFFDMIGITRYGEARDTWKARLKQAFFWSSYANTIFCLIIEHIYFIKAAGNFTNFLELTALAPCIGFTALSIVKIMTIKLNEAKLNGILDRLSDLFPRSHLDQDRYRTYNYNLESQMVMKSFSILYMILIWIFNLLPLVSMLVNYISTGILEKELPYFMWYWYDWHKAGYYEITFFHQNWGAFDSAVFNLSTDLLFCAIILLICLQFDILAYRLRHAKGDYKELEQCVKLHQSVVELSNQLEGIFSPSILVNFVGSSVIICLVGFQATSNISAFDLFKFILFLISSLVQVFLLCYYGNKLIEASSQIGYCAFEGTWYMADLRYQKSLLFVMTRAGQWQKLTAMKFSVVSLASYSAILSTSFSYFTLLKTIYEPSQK
molecule,measurement,setting,value
B1,increase in the amount of luminescence caused by addition of 1-octen-3-ol,odorant receptor AaOR8,the increase in the amount of luminescence caused by addition of 1-octen-3-ol was larger
same,response (relative amount of luminescence) to cis-jasmone,odorant receptor BmOR56,responded more strongly to cis-jasmone
same,response (relative amount of luminescence) to pentyl acetate,odorant receptor DmOR47a,responded more strongly to pentyl acetate
